This assay has as its target human CD40 on primary human B cells or human monocyte-derived dendritic cells (human) (UniProt P25942). The experiment in a line: cell-based or functional assay.

“And” between values parts separate entries of the source, which are not always exact repeats. Equal values may be shown once.

human CD40 on primary human B cells or human monocyte-derived dendritic cells (human), sequence (P25942 21-277 H80K/K81H limits assumed): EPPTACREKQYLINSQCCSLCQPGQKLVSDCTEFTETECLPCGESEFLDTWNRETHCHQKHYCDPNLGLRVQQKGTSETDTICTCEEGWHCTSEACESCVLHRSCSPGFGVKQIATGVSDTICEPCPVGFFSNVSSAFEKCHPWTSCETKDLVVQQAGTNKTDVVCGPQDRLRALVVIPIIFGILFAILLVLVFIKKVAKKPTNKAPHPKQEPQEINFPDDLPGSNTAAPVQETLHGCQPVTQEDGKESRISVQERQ

In the case of “anti-CD40 monoclonal antibody (corresponds to sequence 21.4.1 of U.S. Pat. No. 7,338,660 B2)”, the EC50, % CD86, human B cells with FAP-CHO cells, w HSA was 0.88 nM and 0.3 nM; the EC50, % CD86, human B cells with FAP-CHO cells, w/o HSA is 1.9 nM and 0.51 nM; the EC50, MFI CD86, human B cells with FAP-CHO cells, w HSA is 0.51 nM and 2.05 nM; the EC50, MFI CD86, human B cells with FAP-CHO cells, w/o HSA is 1.13 nM and 4.73 nM. In addition, the Efficacy [MFI at highest dose], MFI CD86, human B cells with FAP-CHO cells, w HSA is 1530 MFI and 1870 MFI; the Efficacy [MFI at highest dose], MFI CD86, human B cells with FAP-CHO cells, w/o HSA is 1340 MFI and 2060 MFI; the Efficacy [MFI at highest dose], MFI CD86, human B cells with WT-CHO cells (no FAP), w HSA is 1900 MFI and 1470 MFI; the Efficacy [MFI at highest dose], MFI CD86, human B cells with WT-CHO cells (no FAP), w/o HSA was 2050 MFI and 1390 MFI.

These data come from patent US20210395318A1.
